Measurements reported in patent US20210023129A1, “PLATINUM PRODRUG PERFLUOROARYL PEPTIDE CONJUGATES” (MASSACHUSETTS INSTITUTE OF TECHNOLOGY, priority 2019, published 2021).
Values belong to the compound of their own block, whether it stands above or below them. *1 amine or outer side, *2 acyl side, *3 side chain or, on linkers, in order; H or OH if unused. Where a SMILES comes first, the peptide text is derived from it. Bridges are numbered along the chain shown (N, C = ends). Perfluorobiphenyl(4,4') = Fc1c(F)c([*:1])c(F)c(F)c1-c1c(F)c(F)c([*:2])c(F)c1F; Suc = O=C(CCC(=O)[*:2])[*:1]

What was measured:
[1] = system: G9 neurospheres (patient-derived glioma cells); settings: for IC50: read-out: IC50 against the G9 cells, treated for 80 hours, CellTiter-Glo
Protocol: The cytotoxicity of the PtIV-M13 conjugate was evaluated against patient-derived glioma cells (GCs). To evaluate the in vitro efficacy of the conjugate, G9 neurospheres were treated with PtIV-M13, prodrug 4, and cisplatin for 80 hours. After treatment, the potency of the compounds was assessed by the CellTiter-Glo luminescent cell viability assay (FIGS. 2A and 2B). The assay involves lysis of the cells and quantitation of the amount of ATP present, which is directly proportional to the number of living cells in culture. […] The same experiment was repeated on G30 GCs.

[2] = Pharmacokinetics in healthy mice: platinum in serum and brain by GFAAS; settings: tail vein; for brain distribution of platinum over time / serum concentration of platinum over time: 100 μL of 100 μM (~2.5 mg/kg), 1, 2.5 and 5 hours
Protocol: Pharmacokinetic and biodistribution studies were performed in healthy mice. For pharmacokinetics, 100 μL of a 100 μM solution of PtIV-M13 or PtIV-L13 dissolved in saline (corresponding to a dose of ˜2.5 mg/kg) were injected into the tail veins of mice. The brain and a blood sample were isolated at 1, 2.5, and 5 hours. A portion of the brain was dissolved in nitric acid and the amount of platinum in the brain and serum were quantified by GFAAS. […] The error bars are the standard deviation from three different animals injected with the compound. […] The error bars are the standard deviation from three different animals injected with the compound.

[3] = system: G30 GCs (patient-derived glioma cells); test: CellTiter-Glo luminescent cell viability assay, G30 GCs; assay type: cell-based, human; settings: same experiment as G9 (80 hours, CellTiter-Glo), read-out: IC50 (potency) on G30 GCs
Protocol: The cytotoxicity of the PtIV-M13 conjugate was evaluated against patient-derived glioma cells (GCs). To evaluate the in vitro efficacy of the conjugate, G9 neurospheres were treated with PtIV-M13, prodrug 4, and cisplatin for 80 hours. After treatment, the potency of the compounds was assessed by the CellTiter-Glo luminescent cell viability assay (FIGS. 2A and 2B). The assay involves lysis of the cells and quantitation of the amount of ATP present, which is directly proportional to the number of living cells in culture. […] However, prodrug 4 was not potent, perhaps due to an inability to enter cells (FIG. 2A). As a result, in the follow-up in vitro experiment with another GC line, PtIV-L13 was used as a control instead as this should have similar properties to the PtIV-M13, only without the perfluoroaryl. The same experiment was repeated on G30 GCs.

[4] = Biodistribution in mice: platinum in organs by GFAAS; settings: tail vein, 100 μL of 100 μM in saline, after five hours
Protocol: To study the biodistribution, 100 μL of a 100 μM solution of PtIV-M13, PtIV-L13, or cisplatin dissolved in normal saline were injected into the tail vein of mice. After five hours, the mice were sacrificed and the brain, heart, lungs, kidney, spleen and liver were removed. The amount of platinum in each organ was measured by dissolving a portion of the respective organ in nitric acid and then quantifying the amount of platinum by GFAAS (supporting information).

Structure (SMILES): CC[C@H](C)[C@H](NC(=O)[C@H](CCCCN)NC(=O)CNC(=O)[C@H](CC(C)C)NC(=O)[C@H](CC(C)C)NC(=O)[C@H](Cc1ccc(O)cc1)NC(=O)CNC(=O)[C@H](C)NC(=O)CCC(=O)O)C(=O)N[C@@H](CC(N)=O)C(=O)N[C@@H](CC(C)C)C(=O)N[C@@H](CCCCN)C(=O)N[C@@H](C)C(=O)N[C@H]1CSc2c(F)c(F)c(c(F)c2F)-c2c(F)c(F)c(c(F)c2F)SC[C@@H](C(=O)N[C@@H](CC(C)C)C(N)=O)NC(=O)[C@H](CCCCN)NC(=O)[C@H](CCCCN)NC(=O)[C@H](C)NC(=O)[C@H](CC(C)C)NC(=O)[C@H](C)NC(=O)[C@H](C)NC1=O [PtIV-M13] (Suc-AGYLLGKINLKACAALAKKCL-NH2; linker 13-20 via Perfluorobiphenyl(4,4'))
IC50 [1]: 4.51 ± 0.22 µM | brain distribution of platinum over time [2]: increased over time | serum concentration of platinum over time [2]: decreased over time | brain uptake versus linear control PtIV-L13 ([2]; ~2.5 mg/kg, brain platinum read-out): more brain uptake | stability in serum versus linear control PtIV-L13 ([2]; ~2.5 mg/kg, serum platinum read-out): more stable in serum | IC50 [3]: 4.04 µM | increase in the amount of platinum in the brain compared with cisplatin [4]: 15 fold

Structure (SMILES): CC[C@H](C)[C@H](NC(=O)[C@H](CCCCN)NC(=O)CNC(=O)[C@H](CC(C)C)NC(=O)[C@H](CC(C)C)NC(=O)[C@H](Cc1ccc(O)cc1)NC(=O)CNC(=O)[C@H](C)NC(=O)CCC(=O)O)C(=O)N[C@@H](CC(N)=O)C(=O)N[C@@H](CC(C)C)C(=O)N[C@@H](CCCCN)C(=O)N[C@@H](C)C(=O)N[C@@H](CO)C(=O)N[C@@H](C)C(=O)N[C@@H](C)C(=O)N[C@@H](CC(C)C)C(=O)N[C@@H](C)C(=O)N[C@@H](CCCCN)C(=O)N[C@@H](CCCCN)C(=O)N[C@@H](CO)C(=O)N[C@@H](CC(C)C)C(N)=O [PtIV-L13] (Suc-AGYLLGKINLKASAALAKKSL-NH2)
brain distribution of platinum over time [2]: increased over time | serum concentration of platinum over time [2]: decreased over time | IC50 [3]: 28.8 µM

IC50 against the G9 cells ([1]; treated for 80 hours, CellTiter-Glo): not potent
Structure (SMILES): CCCCNC(=O)[O][Pt]([NH2])([NH2])([Cl])([Cl])[O]C(=O)CCC(=O)O [prodrug 4]

Structure (SMILES): N.N.[Cl][Pt][Cl] [cisplatin, reference compound]
IC50 [1]: 4.34 ± 0.66 µM
